Data on nine molecules can be found in patent publication US20210139598A1 (ROCKEFELLER UNIVERSITY, published 2021).

In general, Kd refers to a measure of binding affinity in units of concentration. One may read the koff as a measure of how fast the partners let go of each other. One may read the kon as the rate constant with which the complex forms.

In experiment [1] the target is T1, human FcγRIIB, soluble ectodomain (human, UniProt P31994 43-217).
T1 construct: extracellular domain; Recombinant; also called hFcγRIIB; huFcγRIIB
T1 sequence (looked up): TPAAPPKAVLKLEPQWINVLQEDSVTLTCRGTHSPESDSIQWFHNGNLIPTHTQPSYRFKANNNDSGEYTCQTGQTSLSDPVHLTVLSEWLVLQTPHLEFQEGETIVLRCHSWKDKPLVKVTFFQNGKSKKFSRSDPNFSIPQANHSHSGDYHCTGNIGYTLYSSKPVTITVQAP
The experiment can be described thus: fold change in hFcγRIIB binding affinity against wild type IgG1, from SPR. As for the experimental part:
(§1) All experiments were performed with a Biacore T100 surface plasmon resonance (SPR) system (Biacore, GE Healthcare), as previously described (Bournazos, et al., 2014, Cell 158, 1243-1253). Briefly, experiments were performed at 25_C in HBS-EP+ buffer (10 mM HEPES, pH 7.4; 150 mM NaCl; 3.4 mM EDTA; 0.005% (v/v) surfactant P20). […] Background binding to blank immobilized flow cells was subtracted and affinity constants were calculated using BIAcore T100 evaluation software (GE Healthcare) using the 1:1 Langmuir binding model.

The target in experiment [2] is T2, human FcγRIIA R131 allele, soluble ectodomain (human, UniProt P12318 34-217).
T2 construct: extracellular domain; also called hFcγRIIA^R131; hFcγRIIA
T2 sequence (looked up): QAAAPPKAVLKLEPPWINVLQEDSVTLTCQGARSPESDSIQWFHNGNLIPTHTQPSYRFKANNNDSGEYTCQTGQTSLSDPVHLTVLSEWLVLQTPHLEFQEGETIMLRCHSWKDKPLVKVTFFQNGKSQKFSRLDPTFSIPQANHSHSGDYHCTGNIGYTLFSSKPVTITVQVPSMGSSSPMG
The experiment can be described thus: ratio of the binding affinities to hFcγRIIA R131 and to hFcγRIIB, from SPR. Here is the method:
as §1

Experiment [3] deals with T1, human FcγRIIB, soluble ectodomain. The experiment is described as follows: SPR (Biacore T100), 2141 Fc variant and soluble FcγR ectodomain. Here is the method: as §1
Experiment [4] addresses T3, human FcγRI, soluble ectodomain (human, UniProt P12314 16-292).
T3 construct: extracellular domain; Recombinant; also called hFcγRI; huFcγRI
The description is as above. As for the experimental part: as §1

Experiment [5] addresses T4, human FcγRIIIA F158 allele, soluble ectodomain (human, UniProt P08637 17-208).
T4 construct: extracellular domain; also called hFcγRIIIA^F158; huFcγRIIIA
The description is as above. As for the experimental part: as §1

Experiment [6] has as its target T2, human FcγRIIA R131 allele, soluble …. The description is as above. As for the experimental part:
as §1

Experiment [7] deals with T5, human CD40, soluble ectodomain / recombinant extracellular domain (human, UniProt P25942 21-193).
T5 construct: also called hCD40; huCD40
The experiment can be described thus: SPR (Biacore T100), IgG immobilised, soluble CD40 injected. As for the experimental part:
as §1
For orientation: Surface plasmon resonance follows binding to a sensor surface in real time, without labels.

The target of experiment [8] is T2, human FcγRIIA R131 allele, soluble …. The experiment is described as follows: graded summary table of FcγR binding affinity profiles (SPR, see Table 4); the sheet prints no allele, R131 taken from Table 4. As for the experimental part: as §1

T5 sequence (P25942 21-193): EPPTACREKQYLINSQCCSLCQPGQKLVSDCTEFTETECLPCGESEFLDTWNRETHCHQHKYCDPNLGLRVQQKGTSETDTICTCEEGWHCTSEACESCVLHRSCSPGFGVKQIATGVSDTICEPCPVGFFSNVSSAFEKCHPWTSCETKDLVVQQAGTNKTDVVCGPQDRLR
T3 sequence (P12314 16-292): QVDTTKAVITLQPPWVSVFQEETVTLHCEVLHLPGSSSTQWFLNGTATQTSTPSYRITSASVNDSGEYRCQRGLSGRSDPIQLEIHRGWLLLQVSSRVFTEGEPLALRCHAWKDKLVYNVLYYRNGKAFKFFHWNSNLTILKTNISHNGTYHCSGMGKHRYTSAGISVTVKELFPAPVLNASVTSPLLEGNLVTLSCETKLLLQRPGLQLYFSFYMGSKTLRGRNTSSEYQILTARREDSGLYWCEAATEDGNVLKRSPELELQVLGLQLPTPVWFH
T4 sequence (P08637 17-208): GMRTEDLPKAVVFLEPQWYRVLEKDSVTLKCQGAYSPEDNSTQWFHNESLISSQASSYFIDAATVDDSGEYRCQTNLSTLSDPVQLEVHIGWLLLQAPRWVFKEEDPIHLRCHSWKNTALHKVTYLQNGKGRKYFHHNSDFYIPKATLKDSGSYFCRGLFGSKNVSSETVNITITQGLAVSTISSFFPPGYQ

B1: 2141-IgG1 (anti-human CD40 Ab clone 21.4.1, wild type human IgG1) (antibody)
heavy: not shown
light: DIQMTQSPSSVSASVGDRVTITCRASQGIYSWLAWYQQKPGKAPNLLIYTASTLQSGVPSRFSGSGSGTDFTLTISSLQPEDFATYYCQQANIFPLTFGGGTKVEIKRTVAAPSVFIFPPSDEQLKSGTASVVCLLNNFYPREAKVQWKVDNALQSGNSQESVTEQDSKDSTYSLSSTLTLSKADYEKHKVYACEVTHQGLSSPVTKSFNRGEC
notes: Made in HEK293T cells; also called IgG1 wild type
As for B1, in experiment [1], the FcγRIIB -fold turned out to be 1 fold. Also, the IIA/IIB in experiment [2] worked out at 2.7. Moreover, the “Fold (KD(IgG1)/KD(Fc variant))” value in experiment [3], in experiment [4], in experiment [5] and in experiment [6] was 1 fold throughout. In experiment [7], the dissociation constant Kd amounted to 0.0199 µM. Also, the koff in experiment [7] came out at 0.00119 s⁻¹. In addition, the association rate constant (kon) in experiment [7] is 59700 M⁻¹ s⁻¹.

B2: 2141-IgG2 (CP-870,893, human IgG2) (antibody)
heavy: not shown
light: DIQMTQSPSSVSASVGDRVTITCRASQGIYSWLAWYQQKPGKAPNLLIYTASTLQSGVPSRFSGSGSGTDFTLTISSLQPEDFATYYCQQANIFPLTFGGGTKVEIKRTVAAPSVFIFPPSDEQLKSGTASVVCLLNNFYPREAKVQWKVDNALQSGNSQESVTEQDSKDSTYSLSSTLTLSKADYEKHKVYACEVTHQGLSSPVTKSFNRGEC
Consider B2, for which the Kd in experiment [5] was under 10 µM. The molecule further yielded a Kd in experiment [6] of under 10 µM. Besides, in experiment [7], the dissociation constant Kd turned out to be 0.031 µM, the koff worked out at 0.00108 s⁻¹ and the kon came to 34900 M⁻¹ s⁻¹.

B3: 2141-IgG1 G237D/P238D/P271G/A330R (V9) (antibody)
heavy: not shown
light: DIQMTQSPSSVSASVGDRVTITCRASQGIYSWLAWYQQKPGKAPNLLIYTASTLQSGVPSRFSGSGSGTDFTLTISSLQPEDFATYYCQQANIFPLTFGGGTKVEIKRTVAAPSVFIFPPSDEQLKSGTASVVCLLNNFYPREAKVQWKVDNALQSGNSQESVTEQDSKDSTYSLSSTLTLSKADYEKHKVYACEVTHQGLSSPVTKSFNRGEC
Turning to B3, the Kd in experiment [4] came out at 0.578 µM. Further, in experiment [7], the Kd is 0.0268 µM, the koff was found to be 0.00113 s⁻¹ and the kon stood at 42200 M⁻¹ s⁻¹.

B4: 2141-IgG2 C127S (antibody)
heavy: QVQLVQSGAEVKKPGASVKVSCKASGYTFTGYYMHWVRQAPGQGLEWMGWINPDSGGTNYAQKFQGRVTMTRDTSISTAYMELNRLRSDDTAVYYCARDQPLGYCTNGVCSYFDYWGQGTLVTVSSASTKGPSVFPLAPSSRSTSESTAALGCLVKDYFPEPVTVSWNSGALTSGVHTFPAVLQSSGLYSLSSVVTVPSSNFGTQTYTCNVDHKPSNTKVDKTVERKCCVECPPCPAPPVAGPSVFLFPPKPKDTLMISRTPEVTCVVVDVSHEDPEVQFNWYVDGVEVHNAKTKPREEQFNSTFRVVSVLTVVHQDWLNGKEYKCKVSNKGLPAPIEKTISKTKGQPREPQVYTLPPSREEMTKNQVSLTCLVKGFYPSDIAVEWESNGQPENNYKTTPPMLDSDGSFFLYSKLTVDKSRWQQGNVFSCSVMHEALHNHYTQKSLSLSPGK
light: DIQMTQSPSSVSASVGDRVTITCRASQGIYSWLAWYQQKPGKAPNLLIYTASTLQSGVPSRFSGSGSGTDFTLTISSLQPEDFATYYCQQANIFPLTFGGGTKVEIKRTVAAPSVFIFPPSDEQLKSGTASVVCLLNNFYPREAKVQWKVDNALQSGNSQESVTEQDSKDSTYSLSSTLTLSKADYEKHKVYACEVTHQGLSSPVTKSFNRGEC
notes: also called IgG2-B
Consider B4, for which, in experiment [7], the Kd was 0.0309 µM, the koff is 0.0011 s⁻¹ and the kon was 35500 M⁻¹ s⁻¹.

B5: 2141-IgG1 G237D/P238D/H268D/P271G/A330R (V11) (antibody)
heavy: not shown
light: DIQMTQSPSSVSASVGDRVTITCRASQGIYSWLAWYQQKPGKAPNLLIYTASTLQSGVPSRFSGSGSGTDFTLTISSLQPEDFATYYCQQANIFPLTFGGGTKVEIKRTVAAPSVFIFPPSDEQLKSGTASVVCLLNNFYPREAKVQWKVDNALQSGNSQESVTEQDSKDSTYSLSSTLTLSKADYEKHKVYACEVTHQGLSSPVTKSFNRGEC
notes: also called 2141-V11
With B5, in experiment [7], the Kd is 0.0274 µM, the off-rate (koff) stood at 0.00112 s⁻¹ and the kon came to 41000 M⁻¹ s⁻¹.

B6: 2141-IgG1 S267E (antibody)
heavy: not shown
light: DIQMTQSPSSVSASVGDRVTITCRASQGIYSWLAWYQQKPGKAPNLLIYTASTLQSGVPSRFSGSGSGTDFTLTISSLQPEDFATYYCQQANIFPLTFGGGTKVEIKRTVAAPSVFIFPPSDEQLKSGTASVVCLLNNFYPREAKVQWKVDNALQSGNSQESVTEQDSKDSTYSLSSTLTLSKADYEKHKVYACEVTHQGLSSPVTKSFNRGEC
notes: also called SE
With B6, in experiment [7], the Kd stood at 0.0231 µM, the koff amounted to 0.00115 s⁻¹ and the kon came out at 50000 M⁻¹ s⁻¹.

B7: 2141-IgG1 N297A (antibody)
heavy: not shown
light: DIQMTQSPSSVSASVGDRVTITCRASQGIYSWLAWYQQKPGKAPNLLIYTASTLQSGVPSRFSGSGSGTDFTLTISSLQPEDFATYYCQQANIFPLTFGGGTKVEIKRTVAAPSVFIFPPSDEQLKSGTASVVCLLNNFYPREAKVQWKVDNALQSGNSQESVTEQDSKDSTYSLSSTLTLSKADYEKHKVYACEVTHQGLSSPVTKSFNRGEC
notes: also called N297A Fc-null
As for B7, in experiment [7], the Kd turned out to be 0.0222 µM, the koff came to 0.00116 s⁻¹ and the kon is 52300 M⁻¹ s⁻¹. The binding result in experiment [8] was “no binding”.

B8: 2141-IgG1 S267E/L328F (antibody)
heavy: not shown
light: DIQMTQSPSSVSASVGDRVTITCRASQGIYSWLAWYQQKPGKAPNLLIYTASTLQSGVPSRFSGSGSGTDFTLTISSLQPEDFATYYCQQANIFPLTFGGGTKVEIKRTVAAPSVFIFPPSDEQLKSGTASVVCLLNNFYPREAKVQWKVDNALQSGNSQESVTEQDSKDSTYSLSSTLTLSKADYEKHKVYACEVTHQGLSSPVTKSFNRGEC
notes: also called SELF
In turn, B8 returned a Kd in experiment [6] of 0.0177 µM. In experiment [7], the Kd came out at 0.0274 µM, the koff worked out at 0.00116 s⁻¹ and the kon is 42300 M⁻¹ s⁻¹.

B9: 2141-IgG2 C232S (antibody)
heavy: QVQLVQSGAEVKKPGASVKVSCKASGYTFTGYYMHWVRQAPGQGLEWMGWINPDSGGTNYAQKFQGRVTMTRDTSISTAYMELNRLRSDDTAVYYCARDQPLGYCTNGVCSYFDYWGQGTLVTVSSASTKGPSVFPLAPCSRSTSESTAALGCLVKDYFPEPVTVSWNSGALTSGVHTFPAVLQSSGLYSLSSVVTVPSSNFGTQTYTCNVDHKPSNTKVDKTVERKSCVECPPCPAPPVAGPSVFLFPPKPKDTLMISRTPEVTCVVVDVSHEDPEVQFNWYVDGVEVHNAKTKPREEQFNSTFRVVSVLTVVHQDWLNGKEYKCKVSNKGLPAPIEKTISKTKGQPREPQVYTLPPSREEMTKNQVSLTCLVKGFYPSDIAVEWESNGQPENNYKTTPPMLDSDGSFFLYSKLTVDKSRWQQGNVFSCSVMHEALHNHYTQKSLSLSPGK
light: DIQMTQSPSSVSASVGDRVTITCRASQGIYSWLAWYQQKPGKAPNLLIYTASTLQSGVPSRFSGSGSGTDFTLTISSLQPEDFATYYCQQANIFPLTFGGGTKVEIKRTVAAPSVFIFPPSDEQLKSGTASVVCLLNNFYPREAKVQWKVDNALQSGNSQESVTEQDSKDSTYSLSSTLTLSKADYEKHKVYACEVTHQGLSSPVTKSFNRGEC
notes: also called IgG2-C232S (IgG2A); IgG2-A
Turning to B9, in experiment [7], the Kd worked out at 0.0309 µM, the koff was found to be 0.00109 s⁻¹ and the kon is 35200 M⁻¹ s⁻¹.
